Where two headings read alike, the source gives them in different places.
B1: Pf1 PHD1/MBD (residues 48–241) (domain or fragment, human, UniProt Q96QT6 48-241, looked up)
chain: RRSGRATNHDSCDSCKEGGDLLCCDHCPAAFHLQCCNPPLSEEMLPPGEWMCHRCTVRRKKREQKKELGHVNGLVDKSGKRTTSPSSDTDLLDRSASKTELKAIAHARILERRASRPGTPTSSASTETPTSEQNDVDEDIIDVDEEPVAAEPDYVQPQLRRPFELLIAAAMERNPTQFQLPNELTCTTALPGSS

What was measured:
Experiment in all cases: NMR titration
[1] = target: T1, full-length MRG15 (residues 1–323) (human, UniProt Q9UBU8-2 1-323)
[2] = target: B1
[3] = target: T1, full-length MRG15 (residues 1–323); remark: listed apart in the source

B1: binds [1].

B2: MRG domain of MRG15 (residues 155–323) (domain or fragment)
chain: not shown
B2: binds [2].

B3: MRG-binding domain of Pf1 (residues 200–241) (domain or fragment, human, UniProt Q96QT6 200-241, looked up)
chain: DYVQPQLRRPFELLIAAAMERNPTQFQLPNELTCTTALPGSS
B3: binds [3].

Reference: article PMC3428507 (Journal of molecular biology, 2012)
